Experimental data from US20170291959A1 (SORRENTO THERAPEUTICS, published 2017).

B1: C38D8 (antibody, V domains shown)
VH: QVQLVESGGGVVQPGGSLRLSCAASGFIVSTNYVHWVRQAPGKGLEWVSGIYSDPYTSYAYSDSVKGRFTISRDMSKNTVYLQMNRLRAEDTAVYYCARETNTGFSNSWYLDFWGQGTLVTVSS
VL: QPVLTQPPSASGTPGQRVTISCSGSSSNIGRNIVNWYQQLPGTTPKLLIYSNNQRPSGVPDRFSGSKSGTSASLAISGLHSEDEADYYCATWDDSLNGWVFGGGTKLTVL
notes: tested as an antibody beside an IgG matched control in the ADCC assay
B2: C38A2 (antibody, V domains shown)
VH: QVQLVESGGGLVKPGGSLRLSCAASGFTFSDDYMSWIRQAPGKGLEWVASVSNGRPTTYYADSVRGRFTISRDNAKNSLYLQMNSLRAEDTAVYYCAREDWGGEFTDWGRGTLVTVSS
VL: QAGLTQPPSASGTSGQRVTISCSGSSSNIGINFVYWYQHLPGTAPKLLIYKNNQRPSGVPDRFSGSKSGNSASLAISGLRSEDEADYYCAAWDDSLSGYVFGSGTKVTVL
notes: as for B1

Biological target: T1, CD38 on Ramos cells (human, UniProt P28907 1-300)
T1 construct: whole, on cells; also called CD38 expressing cells; Ramos target cells
Assay: ADCC assay on Ramos cells (binding inferred from it)
Description: The ability of anti-CD38 antibodies to bind to CD38 expressing cells and promote functional activity was determined using an antibody-dependent cell-mediated cytotoxicity (ADCC) assay. In this assay, Ramos cells, a Burkitt's lymphoma cell line, were added to wells at 5×10³ cells per well. Test antibodies (C38A2 (“38-A2”), C38D8 (“38-D8”) and C38D4 (“38-D4”) and control IgG) were then added at 1 microgram per ml and incubated with the Ramos cells for 20 minutes at 37° C. After washing, the effector cells were added at different concentrations resulting in three effector-to-target ratios. The effector cells were purified natural killer (NK) cells that had been incubated overnight in the presence of IL-2 (100 U/ml). The assay was allowed to proceed for at least 4 hours after which time cytotoxicity was evaluated using a Promega Cyto-glo kit.

Row | Binder | binding result
1 | B1 | binds
2 | B2 | binds
